Test results: patent US20080292640A1

Target: IL-1 receptor (human) (UniProt P14778)
Test: cell-based or functional assay

UniProt P14778, sequence (P14778 18-569): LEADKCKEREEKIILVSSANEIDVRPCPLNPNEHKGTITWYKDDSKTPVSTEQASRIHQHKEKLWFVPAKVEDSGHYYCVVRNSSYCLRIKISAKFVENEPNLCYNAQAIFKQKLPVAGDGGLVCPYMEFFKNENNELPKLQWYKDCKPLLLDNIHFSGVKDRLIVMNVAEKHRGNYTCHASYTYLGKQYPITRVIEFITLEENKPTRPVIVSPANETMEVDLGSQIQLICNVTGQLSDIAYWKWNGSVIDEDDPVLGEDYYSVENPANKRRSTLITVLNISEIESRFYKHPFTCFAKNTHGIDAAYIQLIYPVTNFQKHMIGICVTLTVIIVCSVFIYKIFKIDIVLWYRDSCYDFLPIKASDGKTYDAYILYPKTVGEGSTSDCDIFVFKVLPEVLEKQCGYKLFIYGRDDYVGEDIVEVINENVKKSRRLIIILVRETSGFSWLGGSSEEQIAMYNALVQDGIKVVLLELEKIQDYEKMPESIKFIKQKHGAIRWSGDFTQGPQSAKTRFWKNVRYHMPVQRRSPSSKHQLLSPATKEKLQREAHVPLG

Kineret® (anakinra) (from UniProt P18510 26-177) (ligand)
IC50, inhibition of IL-1β induced production of IL-8 in human whole blood (100 pM rhIL-1β): 53.4 pM
